Tests used:
Assay in all cases: purified protein, by the assay type
Settings in all cases: other: O2 consumption, 5.0 mM ascorbate, pH 6.0, 37 °C
[1] = substrate: O=C(O)CNC(=O)C1CC1c1ccccc1
[2] = substrate: CC(C)CCC(=O)NCC(=O)O
[3] = substrate: O=C(O)CNC(=O)c1ccc(Cl)cc1
[4] = substrate: CC(Cc1ccccc1)C(=O)NCC(=O)O
[5] = substrate: CC(=O)NCC(=O)NCC(=O)O
[6] = substrate: O=C(O)CNC(=O)Cc1ccccc1
[7] = substrate: O=C(O)CNC(=O)OCc1ccccc1
[8] = substrate: COc1ccc(C(=O)NCC(=O)O)cc1
[9] = substrate: O=C(O)CNC(=O)CSc1ccccc1
[10] = substrate: O=C(O)CNC(=O)/C=C/c1ccccc1
[11] = substrate: O=C(O)CNC(=O)CNC(=O)CNC(=O)c1ccccc1
[12] = substrate: CC(C)(C)OC(=O)NCC(=O)NCC(=O)O
[13] = substrate: O=C(O)CNC(=O)c1ccc(O)cc1
[14] = substrate: O=C(O)CNC(=O)c1ccc(C(F)(F)F)cc1
[15] = substrate: O=C(O)CNC(=O)CCCCc1ccccc1
[16] = substrate: O=C(O)CNC(=O)c1cccs1
[17] = substrate: O=C(O)CNC(=O)c1c(F)cccc1F
[18] = substrate: Nc1ccccc1C(=O)NCC(=O)O
[19] = substrate: O=C(O)CNC(=O)c1ccccc1I
[20] = substrate: O=C(O)CNC(=S)CCc1ccccc1
[21] = substrate: O=C(O)CNC(=O)c1ccccc1O

B1: rat PAM (Rattus norvegicus) (protein)
chain: FKETTRSFSNECLGTIGPVTPLDASDFALDIRMPGVTPKESDTYFCMSMRLPVDEEAFVIDFKPRASMDTVHHMLLFGCNMPSSTGSYWFCDEGTCTDKANILYAWARNAPPTRLPKGVGFRVGGETGSKYFVLQVHYGDISAFRDNHKDCSGVSVHLTRVPQPLIAGMYLMMSVDTVIPPGEKVVNADISCQYKMYPMHVFAYRVHTHHLGKVVSGYRVRNGQWTLIGRQNPQLPQAFYPVEHPVDVTFGDILAARCVFTGEGRTEATHIGGTSSDEMCNLYIMYYMEAKYALSFMTCTKNVAPDMFRTIPAEANIPIPVKPDMVMMHGHHKEAENKEKSALMQQPKQGEEEVLEQDFHVEEELDWPGVYLLPGQVSGVALDSKNNLVIFHRGDHVWDGNSFDSKFVYQQRGLGPIEEDTILVIDPNNAEILQSSGKNLFYLPHGLSIDTDGNYWVTDVALHQVFKLDPHSKEGPLLILGRSMQPGSDQNHFCQPTDVAVEPSTGAVFVSDGYCNSRIVQFSPSGKFVTQWGEESSGSSPRPGQFSVPHSLALVPHLDQLCVADRENGRIQCFKTDTKEFVREIKHASFGRNVFAISYIPGFLFAVNGKPYFGDQEPVQGFVMNFSSGEIIDVFKPVRKHFDMPHDIVASEDGTVYIGDAHTNTVWKFTLTEKMEHRSV
Km [1]: 900 ± 70 µM | kcat [1]: 10 ± 0.3 s⁻¹ | kcat/Km [1]: 11000 ± 700 M⁻¹ s⁻¹ | Km [2]: 280 ± 30 µM | kcat [2]: 6.6 ± 0.3 s⁻¹ | kcat/Km [2]: 23000 ± 2000 M⁻¹ s⁻¹ | Km [3]: 620 ± 40 µM | kcat [3]: 4.1 ± 0.1 s⁻¹ | kcat/Km [3]: 6600 ± 200 M⁻¹ s⁻¹ | Km [4]: 4100 ± 300 µM | kcat [4]: 18 ± 0.9 s⁻¹ | kcat/Km [4]: 4300 ± 100 M⁻¹ s⁻¹ | kcat [5]: 8.9 ± 0.2 s⁻¹ | kcat/Km [5]: 5900 ± 200 M⁻¹ s⁻¹ | Km [6]: 160 ± 5 µM | kcat [6]: 7.4 s⁻¹ | kcat/Km [6]: 46000 M⁻¹ s⁻¹ | Km [7]: 590 ± 20 µM | Km [8]: 820 ± 40 µM | kcat [8]: 5.3 ± 0.08 s⁻¹ | kcat/Km [8]: 6400 ± 200 M⁻¹ s⁻¹ | Km [9]: 190 ± 20 µM | kcat [9]: 4.6 ± 0.2 s⁻¹ | kcat/Km [9]: 25000 ± 1000 M⁻¹ s⁻¹ | Km [10]: 230 ± 20 µM | kcat [10]: 8.4 ± 0.3 s⁻¹ | kcat/Km [10]: 36000 ± 3000 M⁻¹ s⁻¹ | Km [11]: 310 ± 60 µM | kcat [11]: 8.8 ± 1.3 s⁻¹ | kcat/Km [11]: 29000 ± 2000 M⁻¹ s⁻¹ | Km [12]: 300 ± 30 µM | kcat [12]: 7.5 ± 0.2 s⁻¹ | kcat/Km [12]: 25000 ± 1000 M⁻¹ s⁻¹ | Km [13]: 1700 ± 100 µM | kcat [13]: 5.8 ± 0.1 s⁻¹ | kcat/Km [13]: 3500 ± 200 M⁻¹ s⁻¹ | Km [14]: 770 ± 100 µM | kcat [14]: 2.8 ± 0.1 s⁻¹ | kcat/Km [14]: 3600 ± 500 M⁻¹ s⁻¹ | kcat [15]: 12 ± 0.4 s⁻¹ | kcat/Km [15]: 76000 ± 4000 M⁻¹ s⁻¹ | Km [16]: 1600 ± 100 µM | kcat/Km [16]: 6000 ± 300 M⁻¹ s⁻¹ | Km [17]: 19000 ± 4000 µM | kcat [17]: 4.3 ± 0.6 s⁻¹ | kcat/Km [17]: 230 ± 20 M⁻¹ s⁻¹ | Km [18]: 1400 ± 100 µM | kcat [18]: 4.2 ± 0.1 s⁻¹ | kcat/Km [18]: 2900 ± 100 M⁻¹ s⁻¹ | Km [19]: 3400 ± 400 µM | kcat [19]: 3.1 ± 0.1 s⁻¹ | kcat/Km [19]: 910 ± 70 M⁻¹ s⁻¹ | Km [20]: 0.038 ± 0.02 0.023 ± 0.002 mM | kcat [20]: 1.6 ± 0.2 s⁻¹ | kcat/Km [20]: 42000 ± 14000 M⁻¹ s⁻¹ | kcat [21]: 4.9 ± 0.05 s⁻¹ | kcat/Km [21]: 7100 ± 100 M⁻¹ s⁻¹

Source: PMC2668526 (Bioorganic & medicinal chemistry, 2008)
